According to patent US9938505B2, “Polypeptide composition and culture method for pluripotent stem cell using same” (FUJIFILM Corporation, priority 2013, dated 2018):

Key:
iPS cells [1] = assay: Cell adhesiveness evaluation 3 (RCP-1 at 125 to 1,000 pmol/cm^2); assay type: cell-based, human; details: amount added equal to or greater than 125 pmol/cm^2
Protocol: The cell adhesiveness was evaluated in the same manner as in <Cell adhesiveness evaluation 1>, except that RCP-1 was used after the concentration thereof was adjusted to 125 pmol/cm^2 to 1,000 pmol/cm^2 by using PBS. In Table 9, the cell adhesion rate is expressed as relative value calculated by regarding a cell adhesion rate with respect to the culture vessel, onto which natural vitronectin is adsorbed at a concentration of 130 pmol/cm^2, as being 100. N=3.

iPS cells [2] = assay: Growth evaluation, growth curves over 8 days; assay type: cell-based, human; details: FIG. 2
Protocol: The iPS cells collected in the same manner as in <Cell adhesiveness evaluation 1> were seeded into a 96-well plate, onto which RCP-1, RCP-11, and natural human vitronectin were adsorbed, at a ratio of 250 cells/well and cultured for 8 days in a 5% CO2 incubator at 37° C. The number of adhesive cells after different days of culture was measured in the same manner as in <Cell adhesiveness evaluation 1>, thereby obtaining growth curves. […] In FIG. 2, a black rhombus indicates a case using RCP-1, and a black square indicates a case using RCP-11.
From the increase and decrease in the obtained number of cells, the doubling time was calculated. As a result, it was confirmed that it takes 46.4±2.1 hours for the number of cells to be doubled in a case where RCP-1 is used, and 67.7±2.1 hours in a case where RCP-11 is used.

[3] = Aggregation after dialysis (removal of urea); assay type: physicochemical; details: after stepwise dialysis against PBS, 1.5 M NaCl, 0.5 M L-arginine, 1 mM EDTA, pH 7.4
Protocol: For RCP-1 to RCP-10 and RCP-17, each of the purified polypeptide solutions was dialyzed using SLIDE-A-LIZER (trade name, 3.5 K MWCO.). Basically, by using a dialysis buffer (PBS, 1.5 M NaCl, 0.5 M L-arginine, 1 mM EDTA, pH 7.4) as an outer dialysate, urea was removed by stepwise dialysis. The concentration of the end-product of dialysis was calculated from the absorbence at 280 nm by using NANODROP (trade name, Thermo Fisher Scientific Inc.).
Furthermore, the indices of hydrophobicity determined for each of the amino acids were summed up, the obtained value was divided by the number of the amino acids, and the outcome was determined as the GRAVY value (see Kyte J., Doolittle R. F. (1982), J. Mol. Biol, 157: 105-132). The GRAVY value is an index of the hydrophilicity and hydrophobicity of a polypeptide calculated from the degree of hydrophobicity of the amino acids contained in each polypeptide. The greater the GRAVY value, the more the polypeptide is hydrophobic, and the smaller the GRAVY value, the more the polypeptide is hydrophilic. The results are shown in Table 4. • Whether or not aggregation was occurred was evaluated based on the scale of G, A, and B as shown below. The results are summarized in Table 4. • G: The formation of an aggregate was not observed. • A: The formation of particles having a particle size of about 100 nm was observed. • B: The formation of an aggregation of particles having a particle size of equal to or greater than 1 mm was visually observed.

iPS cells [4] = assay: Evaluation of maintenance of undifferentiated state (colony form, NANOG staining); assay type: cell-based, human; details: FIGS. 4A to 4E; after culture for 1 month
Protocol: iPS cells collected in the same manner as in <Cell adhesiveness evaluation 1> were suspended in TeSR2. The iPS cells were seeded into 6-well plate (Tissue culture-treated, Falcon), onto which each of the samples 1, 2, 5, 6, and 7 used in <Cell adhesiveness evaluation 1> was adsorbed in the same manner as in <Cell adhesiveness evaluation 1>, and cultured in a CO2 incubator at 37° C. Except for the day after the seeding, the medium was replaced every day. In the same method as described above, the cells were subcultured every six days. FIGS. 3A to 3E show forms of the iPS cells cultured on each of the samples.
After being cultured for 1 month under the conditions described above, the cells were immobilized using 4% paraformaldehyde and treated with 1% Triton-X/PBS so as to enhance the membrane permeability. After the cells were subjected to a blocking treatment using an IMAGE IT SIGNAL ENHANCER (trade name, Invitrogen), an anti-human NANOG antibody (AF 1997, R&D Systems, Inc.), an ALEXA FLUOR 555 binding rabbit anti-goat IgG antibody (Invitrogen), and DAPI (Dojindo Molecular Technologies, Inc.) were added thereto for labeling, and the cells were imaged using a fluorescence microscope. FIGS. 4A to 4E show the fluorescence microscopic images.
FIGS. 3A and 4A show the iPS cells cultured on RCP-1; FIGS. 3B and 4B show the iPS cells cultured on RCP-11; FIGS. 3C and 4C show the iPS cells cultured on natural human vitronectin; FIGS. 3D and 4D show the iPS cells cultured on rLaminin-5; and FIGS. 3E and 4E show the iPS cells cultured on rLaminin-511. The scale bar in the images indicates […]. In FIGS. 3A to 3E, the images on the left side are full images of the colony, and the images on the right side are magnified images. In FIGS. 4A to 4E, the images on the left side are images of the cells stained with DAPI, and the images on the right side are images of the cells stained with an anti-NANOG antibody. The scale bar in FIGS. 3A to 4E indicates 200 μm.

| Molecule | adhesiveness of iPS cells (in words) (iPS cells [1]) | cell growth properties (in words) (iPS cells [2]) | Aggregation [3] | NANOG expression / maintenance of undifferentiated state (iPS cells [4]) | number of cells on Day 8 of culture, as fraction of the case where RCP-1 was used (iPS cells [2]) |
| --- | --- | --- | --- | --- | --- |
| RCP-1: recombinant polypeptide SEQ ID NO: 14; human vitronectin positions 1-55, 269-459, methionine on N-terminal (protein, Synthetic peptide RCP-1) MDQESCKGRCTEGFNVDKKCQCDELCSYYQSCCTDYTAECKPQVTRGDVFTMPEDEPSQEECEGSSLSAVFEHFAMMQRDSWEDIFELLFWGRTSAGTRQPQFISRDWHGVPGQVDAAMAGRIYISGMAPRPSLAKKQRFRHRNRKGYRSQRGHSRGRNQNSRRPSRATWLSLFSSEESNLGANNYDDYRMDWLVPATCEPIQSVFFFSGDKYYRVNLRTRRVDTVDPPYPRSIAQYWLGCPAPGHL | equivalent to the cell adhesion rate of the natural vitronection | higher cell growth properties compared to RCP-11 | A (The formation of particles having a particle size of about 100 nm was observed.) | strongly expressed NANOG in the entirety of the colony | – |
| RCP-11: recombinant polypeptide SEQ ID NO: 24; positions 1-459, corresponds to the sequence of natural human vitronectin, GPLG on N-terminal (protein, GPLG N-terminal extension; Synthetic peptide RCP-11) GPLGDQESCKGRCTEGFNVDKKCQCDELCSYYQSCCTDYTAECKPQVTRGDVFTMPEDEYTVYDDGEEKNNATVHEQVGGPSLTSDLQAQSKGNPEQTPVLKPEEEAPAPEVGASKPEGIDSRPETLHPGRPQPPAEEELCSGKPFDAFTDLKNGSLFAFRGQYCYELDEKAVRPGYPKLIRDVWGIEGPIDAAFTRINCQGKTYLFKGSQYWRFEDGVLDPDYPRNISDGFDGIPDNVDAALALPAHSYSGRERVYFFKGKQYWEYQFQHQPSQEECEGSSLSAVFEHFAMMQRDSWEDIFELLFWGRTSAGTRQPQFISRDWHGVPGQVDAAMAGRIYISGMAPRPSLAKKQRFRHRNRKGYRSQRGHSRGRNQNSRRPSRATWLSLFSSEESNLGANNYDDYRMDWLVPATCEPIQSVFFFSGDKYYRVNLRTRRVDTVDPPYPRSIAQYWLGCPAPGHL | – | – | – | strongly expressed NANOG in the entirety of the colony | about ⅓ |
